Assay results taken from the supplement of paper PMC6757056.
± gives the standard deviation of the averaged measurements.

B1: library; a variant is named by its letters at N, in order (parent)
chain: GCUGUCACCGGAAUACCAGCAUCGUCUUGAUGCCCUUGGAAGUCCGGUCUGAUGAGUCCNNNNNGGACGAAACAGC
B2: library; a variant is named by its letters at N, in order (parent)
chain: GCUGUCACCGGUGUAUUACCCUAGUGGUCGACCGGUCUGAUGAGUCUNNNNNNAGACGAAACAGC

Assays:
theophylline [1] = variants of: B1; assay: FACS-Seq fitted mean relative fluorescence mCherry/BFP without ligand (log10 relative fluorescence); higher = higher reporter protein expression; settings: HEK293T, ligand present: no
In short: (§1)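 Cells were sorted into 6 bins on the mCherry/BFP ratio after 48 h with or without ligand. These were enriched HEK293T cells transduced by lentivirus with a ribozyme-switch mCherry reporter plus an EF1α-BFP marker. Fluorescence was obtained by fitting a normal distribution to sequencing-derived bin counts. Counts came from MiSeq sequencing of PCR-amplified, barcoded genomic DNA, binned by log10(mCherry/BFP), with means scaled to five spiked-in control ribozymes.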

theophylline [2] = variants of: B1; assay: normalized RNA/DNA level with ligand (relative to sTRSVctl = 100) (log10 (% of sTRSVctl)); higher = less ribozyme self-cleavage, higher mRNA level; settings: ligand concentration (+) RNA-Seq: 5 mM, HEK293T, reporter: mCherry (pCS4076), ligand present: yes
In short: (§2)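 RNA level was computed as RNA reads over DNA reads divided by a spiked-in non-cleaving sequence or by the top sequences, then scaled and log-transformed. Scaling was ×100 with log10, the top group was 25 sequences, and the threshold was ≥100 DNA reads. The reads came from HEK293T cells transfected at 4 µg per 6-well well with ribozyme switch library plasmids (mCherry, or eGFP in some ligand experiments). Total RNA was extracted with EDTA 72 h after transfection, with any ligand added 1 h before it.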

theophylline [3] = variants of: B1; assay: normalized RNA/DNA level without ligand (relative to sTRSVctl = 100) (log10 (% of sTRSVctl)); higher = less ribozyme self-cleavage, higher mRNA level; settings: HEK293T, reporter: mCherry (pCS4076), ligand present: no
In short: as §2

theophylline [4] = variants of: B1; assay: FACS-Seq fitted mean relative fluorescence mCherry/BFP with ligand (log10 relative fluorescence); ligand concentration (+) FACS-Seq: 1 mM; higher = higher reporter protein expression; settings: HEK293T, ligand present: yes
In short: as §1

hypoxanthine [5] = variants of: B2; assay: FACS-Seq fitted mean relative fluorescence mCherry/BFP without ligand (log10 relative fluorescence); ligand: hypoxanthine (xanthine aptamer); higher = higher reporter protein expression; settings: HEK293T, ligand present: no
Procedure: (§3)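 Hammerhead (sTRSV) ribozyme switch libraries with a ligand aptamer grafted on stem I and a randomized N4-6 loop II, cloned into the 3' UTR of mCherry and transiently transfected into HEK293T cells; RNA-Seq 72 h post transfection with ligand added 1 h before transfection; RNA read count / plasmid DNA read count normalized to the non-cleaving sTRSVctl (x100), log10; sequences with >100 DNA reads. FACS-Seq: lentiviral library sorted into 6 bins after 48 h ligand, log-normal fit mean of mCherry/BFP scaled to controls. Printed sequences are partial switch sequences.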

hypoxanthine [6] = variants of: B2; assay: normalized RNA/DNA level with ligand (relative to sTRSVctl = 100) (log10 (% of sTRSVctl)); ligand: hypoxanthine (xanthine aptamer); higher = less ribozyme self-cleavage, higher mRNA level; settings: ligand concentration (+) RNA-Seq: 5 mM, HEK293T, reporter: mCherry (pCS4076), ligand present: yes
Procedure: as §3

hypoxanthine [7] = variants of: B2; assay: normalized RNA/DNA level without ligand (relative to sTRSVctl = 100) (log10 (% of sTRSVctl)); ligand: hypoxanthine (xanthine aptamer); higher = less ribozyme self-cleavage, higher mRNA level; settings: HEK293T, reporter: mCherry (pCS4076), ligand present: no
Procedure: as §3

hypoxanthine [8] = variants of: B2; assay: FACS-Seq fitted mean relative fluorescence mCherry/BFP with ligand (log10 relative fluorescence); ligand: hypoxanthine (xanthine aptamer); ligand concentration (+) FACS-Seq: 5 mM; higher = higher reporter protein expression; settings: HEK293T, ligand present: yes
Procedure: as §3

AUUGU
FACS-Seq fitted mean (log10) (theophylline [1]): 1.06 ± 0.018
normalized RNA/DNA level with ligand (log10) (theophylline [2]): 2.04 ± 0.047
normalized RNA/DNA level without ligand (log10) (theophylline [3]): 1.88 ± 0.064
FACS-Seq fitted mean (log10) (theophylline [4]): 1.15 ± 0.022

AUUGC
FACS-Seq fitted mean (log10) (theophylline [1]): 1.19 ± 0.033
normalized RNA/DNA level with ligand (log10) (theophylline [2]): 2.0706 ± 0.0016
normalized RNA/DNA level without ligand (log10) (theophylline [3]): 2.01 ± 0.087
FACS-Seq fitted mean (log10) (theophylline [4]): 1.02 ± 0.1

AUUGA
FACS-Seq fitted mean (log10) (theophylline [1]): 0.66 ± 0.051
normalized RNA/DNA level with ligand (log10) (theophylline [2]): 1.99 ± 0.038
normalized RNA/DNA level without ligand (log10) (theophylline [3]): 1.79 ± 0.08
FACS-Seq fitted mean (log10) (theophylline [4]): 0.85337 ± 0.00081

UAAAAU
FACS-Seq fitted mean (log10) (hypoxanthine [5]): 0.434 ± 0.055
normalized RNA/DNA level with ligand (log10) (hypoxanthine [6]): 1.89 ± 0.071
normalized RNA/DNA level without ligand (log10) (hypoxanthine [7]): 1.76 ± 0.0046
FACS-Seq fitted mean (log10) (hypoxanthine [8]): 0.454 ± 0.039

UAAAAA
FACS-Seq fitted mean (log10) (hypoxanthine [5]): 0.315 ± 0.015
normalized RNA/DNA level with ligand (log10) (hypoxanthine [6]): 1.905 ± 0.019
normalized RNA/DNA level without ligand (log10) (hypoxanthine [7]): 1.784 ± 0.00081
FACS-Seq fitted mean (log10) (hypoxanthine [8]): 0.22 ± 0.0062

UAAAAC
FACS-Seq fitted mean (log10) (hypoxanthine [5]): 0.723 ± 0.03
normalized RNA/DNA level with ligand (log10) (hypoxanthine [6]): 1.914 ± 0.0064
normalized RNA/DNA level without ligand (log10) (hypoxanthine [7]): 1.826 ± 0.0019
FACS-Seq fitted mean (log10) (hypoxanthine [8]): 0.769 ± 0.068

GAAACC
FACS-Seq fitted mean (log10) (hypoxanthine [5]): 0.401 ± 0.023
normalized RNA/DNA level with ligand (log10) (hypoxanthine [6]): 1.897 ± 0.011
normalized RNA/DNA level without ligand (log10) (hypoxanthine [7]): 1.85 ± 0.022
FACS-Seq fitted mean (log10) (hypoxanthine [8]): 0.469 ± 0.033

GAAACG
FACS-Seq fitted mean (log10) (hypoxanthine [5]): 0.287 ± 0.024
normalized RNA/DNA level with ligand (log10) (hypoxanthine [6]): 1.88 ± 0.023
normalized RNA/DNA level without ligand (log10) (hypoxanthine [7]): 1.51 ± 0.048
FACS-Seq fitted mean (log10) (hypoxanthine [8]): 0.561 ± 0.048

GAAACU
FACS-Seq fitted mean (log10) (hypoxanthine [5]): 0.54 ± 0.047
normalized RNA/DNA level with ligand (log10) (hypoxanthine [6]): 1.92 ± 0.042
normalized RNA/DNA level without ligand (log10) (hypoxanthine [7]): 1.89 ± 0.039
FACS-Seq fitted mean (log10) (hypoxanthine [8]): 0.481 ± 0.042

GAAACA
FACS-Seq fitted mean (log10) (hypoxanthine [5]): 0.6 ± 0.025
normalized RNA/DNA level with ligand (log10) (hypoxanthine [6]): 1.91 ± 0.047
normalized RNA/DNA level without ligand (log10) (hypoxanthine [7]): 1.857 ± 0.0049
FACS-Seq fitted mean (log10) (hypoxanthine [8]): 0.389 ± 0.13

UAAAUU
FACS-Seq fitted mean (log10) (hypoxanthine [5]): 0.543 ± 0.057
normalized RNA/DNA level with ligand (log10) (hypoxanthine [6]): 1.92 ± 0.024
normalized RNA/DNA level without ligand (log10) (hypoxanthine [7]): 1.85 ± 0.035
FACS-Seq fitted mean (log10) (hypoxanthine [8]): 0.516 ± 0.066

UAAAUG
FACS-Seq fitted mean (log10) (hypoxanthine [5]): 0.306 ± 0.023
normalized RNA/DNA level with ligand (log10) (hypoxanthine [6]): 1.936 ± 0.015
normalized RNA/DNA level without ligand (log10) (hypoxanthine [7]): 1.73 ± 0.035
FACS-Seq fitted mean (log10) (hypoxanthine [8]): 0.483 ± 0.081

UAAAUA
FACS-Seq fitted mean (log10) (hypoxanthine [5]): 0.398 ± 0.012
normalized RNA/DNA level with ligand (log10) (hypoxanthine [6]): 1.92 ± 0.026
normalized RNA/DNA level without ligand (log10) (hypoxanthine [7]): 1.836 ± 0.002
FACS-Seq fitted mean (log10) (hypoxanthine [8]): 0.49 ± 0.045

CAAAAG
FACS-Seq fitted mean (log10) (hypoxanthine [5]): 0.0525 ± 0.066
normalized RNA/DNA level with ligand (log10) (hypoxanthine [6]): 1.87 ± 0.026
normalized RNA/DNA level without ligand (log10) (hypoxanthine [7]): 1.59 ± 0.038
FACS-Seq fitted mean (log10) (hypoxanthine [8]): 0.174 ± 0.031

CAAAAA
FACS-Seq fitted mean (log10) (hypoxanthine [5]): 0.52 ± 0.1
normalized RNA/DNA level with ligand (log10) (hypoxanthine [6]): 1.9 ± 0.04
normalized RNA/DNA level without ligand (log10) (hypoxanthine [7]): 1.74 ± 0.025
FACS-Seq fitted mean (log10) (hypoxanthine [8]): 0.526 ± 0.038

CAAAAC
FACS-Seq fitted mean (log10) (hypoxanthine [5]): 0.248 ± 0.079
normalized RNA/DNA level with ligand (log10) (hypoxanthine [6]): 1.9 ± 0.035
normalized RNA/DNA level without ligand (log10) (hypoxanthine [7]): 1.78 ± 0.028
FACS-Seq fitted mean (log10) (hypoxanthine [8]): 0.0907 ± 0.058

UAACAA
FACS-Seq fitted mean (log10) (hypoxanthine [5]): -0.143 ± 0.032
normalized RNA/DNA level with ligand (log10) (hypoxanthine [6]): 1.9154 ± 0.0012
normalized RNA/DNA level without ligand (log10) (hypoxanthine [7]): 1.7546 ± 0.00028
FACS-Seq fitted mean (log10) (hypoxanthine [8]): -0.012 ± 0.012

UAACAG
FACS-Seq fitted mean (log10) (hypoxanthine [5]): 0.366 ± 0.019
normalized RNA/DNA level with ligand (log10) (hypoxanthine [6]): 1.849 ± 0.012
normalized RNA/DNA level without ligand (log10) (hypoxanthine [7]): 1.5574 ± 0.00043
FACS-Seq fitted mean (log10) (hypoxanthine [8]): 0.581 ± 0.031
